The DeepSol protein solubility set

assay: soluble on expression in E. coli; label from the status in PepcDB or PDB records

Row | Sequence | soluble on expression in E. coli
1 | MTAIAPVITIDGPSGAGKGTLCKAMAEALQWHLLDSGAIYRVLALAALHHHVDVASEDALVPLASHLDVRFVSTNGNLEVILEGEDVSGEIRTQEVANAASQVAAFPRVREALLRRQRAFRELPGLIADGRDMGTVVFPDAPVKIFLDASSEERAHRRMLQLQEKGFSVNFERLLAEIKERDDRDRNRAVAPLVPAADALVLDSTTLSIEQVIEKALQYARQKLALA | soluble
2 | MAAYSYRPGPGAGPGPAAGAALPDQSFLWNVFQRVDKDRSGVISDTELQQALSNGTWTPFNPVTVRSIISMFDRENKAGVNFSEFTGVWKYITDWQNVFRTYDRDNSGMIDKNELKQALSGFGYRLSDQFHDILIRKFDRQGRGQIAFDDFIQGCIVLQRLTDIFRRYDTDQDGWIQVSYEQYLSMVFSIV | soluble
3 | MASFIPNLPSWAKHVDLKFRSALVLSQLFTKSWGHPDVIKQMAKYRRDVMSKRLVMDYVKELNPKIDIVKKYSKNGVTSYEGFFASPHATLFPNHMPGNVGRAHFRAYLPQKPGPVCIHLAGTGDHSYFRRHYLLVDDMLKDGVGSILIQNPFYGDRKPPNQFRSSLENVTDLFVMGAALIAECNHLFNWSETLGYGPFAISGVSMGGFMAQLAGSNSQRPISIVPILAWTTASPSYTEGAISPAVNYSLLQKQLEDPHYVDKIRRIPNQNWLDKMREMTARNGDSEAKNMMRILMDDFTSLEFYPTPIDTSLCHVFLADQDQYVLRNQGTPTYQQLWPNVTVEMMEGYGHVTAYLSKHDLWRRRITELLRRQQQKTI | not soluble
4 | MSLAKGGKRMRRTLAGIAAVLGLALGQQQVTLFWSGAITGPTSDAGAPYGAAVEDYCKWANERKLVPGVVFNCVVRDDQYNNANTQRFFEEAVDRFKIPVFLSYATGANLQLKPLIQELRIPTIPASMHIELIDPPNNDYIFLPTTSYSEQVVALLEYIAREKKGAKVALVVHPSPFGRAPVEDARKAARELGLQIVDVQEVGSGNLDNTALLKRFEQAGVEYVVHQNVAGPVANILKDAKRLGLKMRHLGAHYTGGPDLIALAGDAAEGFLWATSFYMAHEDTPGIRLQKEIGRKYGRPENFIESVNYTNGMLVASIAVEAIRRAQERFKRITNETVYQAIVGMNGPNAFKPGFAVSTKQGVEIDFTKSEHTGAEGLRILEAKGGRFVPVTEPFTSALFRKVHYGEGHHHHHH | soluble
5 | MGSDKIHHHHHHMVNQNQWRQWGCKVIDIEKAALEHLYQFVDSDAFSQACELILQCKGKVIVMGMGKSGHIGNKISATLASTGTPAFFVHPGEASHGDLGALAKEDIILAISNSGESSEILTLLPVIQRMGVPVIAITGKPESNMAKLAKIHLCIQVPEEACPLGLAPTSSTTATLVMGDALAVALLQAKGFTQDDFALSHPGGSLGRKLLLKVSDVMHQDDRLPCVPHDICITEALYEISKKGLGMTAVVDANQCLVGIFTDGDLRRVIDAEVNLRTTPIEQVMTKNCVTTTAGILAAQALQVMESKNINGLIVVNEQQQPIGALNMLDMVKAGVI | not soluble
6 | PAPTPSSSPVPTLSPEQQEMLQAFSTQSGMNLEWSQKCLQDNNWDYTRSAQAFTHLKAKGEIPEVAFMK | soluble
7 | MSLDDFCNIPKGKEVVFGFNVPQSGAYADEGMDELKAYQLAVKHLNGEGDGGMLKTMKPLALKGNGVLGKKVTFVSGDTQTKADQARATAKRMIEKDGAIMITGGSSSAEAVAVQSLCQDVGVIFMAGLTHSNDTTGKDKRAYGFRHFFNAYMSGVALGPVLAEAYGKDRAAYHLTADYTWGWTQEESMKDATEKQGWKTVKAVRTPLGAADFSQYITPVLNSGADVLILNHYGKDMINSLTQAVQFGLRDKMANGKKFEIVVPLFSELMAQGAGDAIKGIYGTANWDWKLEDAATSAFTKSFGAAYGTPPSQAAQTCYVQAILYADAVERAGTFNPSKVIAALEGFEFDGLGNGKTLYRAADHQCFKDVLVVQGKEKPKEGHHHHHH | not soluble
8 | DGKRVWLSDDELTRFIEQAETPHQRLAFLLAGRVGLRRSEIIEVCPQDLVDGPTGDHIRVWESYAKRDKYREPPVPQEVVTIAETLAYQQDDDEPLLDVAGSTVYRWVRRAADELEEETGDRGWQYLDVHDLRRTWGTYLLEQGVIPSVVMSFGGWEDWDTFRKHYLGEFS | soluble
9 | MDFTQQLQACVTQANQALSRFIAPLPFQNTPVVEAMQYGALLGGKRLRPFLVYATGQMFGVSTATLDAPAAAVECIHAYSLIHDDLPAMDDDDLRRGLPTCHIKFGEANAILAGDALQTLAFAIISDAPMPEVADRDRIAMIAELANASGIAGMCGGQALDLAAEGQRITLDALERIHRHKTGALIRAAVRLGALSAGDKGRNTLPILDRYAESIGLAFQVQDDILDVVGDTATLGKRQGADQQLGKSTYPALLGLEQARNKARDLIEDARQSLHQLAAQSLDTSALEALANYIIQRDK | not soluble
